Experimental data: patent publication US6861508B2, “Transcriptional intermediary factor-2” (Institut National de la Sante et de la Recherche Medicale, priority 1996, dated 2005)

B1: GST-mRXRα(DE) (pGEX2T-mRXRα(DE), amino acids 205-467) (receptor, mouse, UniProt P28700 205-467, looked up)
chain: MKREAVQEERQRGKDRNENEVESTSSANEDMPVEKILEAELAVEPKTETYVEANMGLNPSSPNDPVTNICQAADKQLFTLVEWAKRIPHFSELPLDDQVILLRAGWNELLIASFSHRSIAVKDGILLATGLHVHRNSAHSAGVGAIFDRVLTELVSKMRDMQMDKTELGCLRAIVLFNPDSKGLSNPAEVEALREKVYASLEAYCKHKYPEQPGRFAKLLLRLPALRSIGLKCLEHLFFFKLIGDTPIDTFLMEMLEAPHQAT
notes: range 205-467; also called GST-RXR; GST-RXRα(DE); not shown: glutathione-S-transferase (GST) of pGEX2T (Pharmacia)

Key:
[1] = target: T1, TIF2.1 (TIF2 amino acids 624 to 1287) (human, UniProt Q15596 624-1287); assay: Far-Western blot with 32P-labelled NR LBD probe, agonist present
T1 construct: Form without a stated tag: expression-library clone, expressed in Cos cells from pSG5, or in-vitro-translated; also called cytoplasmic TIF2.1 polypeptide
T1 sequence: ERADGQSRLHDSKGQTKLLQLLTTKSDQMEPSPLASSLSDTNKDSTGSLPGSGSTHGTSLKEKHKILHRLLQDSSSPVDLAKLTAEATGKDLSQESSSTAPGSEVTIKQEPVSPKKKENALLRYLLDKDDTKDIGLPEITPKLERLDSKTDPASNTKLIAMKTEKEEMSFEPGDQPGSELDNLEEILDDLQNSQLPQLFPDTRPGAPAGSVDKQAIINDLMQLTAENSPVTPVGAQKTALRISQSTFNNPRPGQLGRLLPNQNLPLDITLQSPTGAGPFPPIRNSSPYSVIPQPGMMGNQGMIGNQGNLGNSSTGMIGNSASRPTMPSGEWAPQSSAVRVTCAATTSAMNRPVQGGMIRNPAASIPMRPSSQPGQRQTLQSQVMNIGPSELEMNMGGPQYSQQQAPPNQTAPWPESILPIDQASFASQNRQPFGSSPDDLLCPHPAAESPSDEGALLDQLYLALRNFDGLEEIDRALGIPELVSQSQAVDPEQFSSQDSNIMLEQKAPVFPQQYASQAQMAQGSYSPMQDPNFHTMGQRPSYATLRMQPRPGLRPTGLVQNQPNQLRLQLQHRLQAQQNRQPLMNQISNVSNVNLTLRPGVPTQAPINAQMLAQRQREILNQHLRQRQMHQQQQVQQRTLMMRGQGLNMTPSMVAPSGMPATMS

[2] = target: T2, GST-hRARα(DEF) (pGEX2T-hRARα(DEF), amino acids 153-462) (human, UniProt P10276 153-462); assay: in vitro GST interaction of TIF2.1 point mutants, with ligand, relative to TIF2.1 wild type
T2 construct: range 153-462; Bacterially produced; also called GST-RAR; GST-RARα(DEF); not shown: glutathione-S-transferase (GST) of pGEX2T (Pharmacia)
T2 sequence (looked up): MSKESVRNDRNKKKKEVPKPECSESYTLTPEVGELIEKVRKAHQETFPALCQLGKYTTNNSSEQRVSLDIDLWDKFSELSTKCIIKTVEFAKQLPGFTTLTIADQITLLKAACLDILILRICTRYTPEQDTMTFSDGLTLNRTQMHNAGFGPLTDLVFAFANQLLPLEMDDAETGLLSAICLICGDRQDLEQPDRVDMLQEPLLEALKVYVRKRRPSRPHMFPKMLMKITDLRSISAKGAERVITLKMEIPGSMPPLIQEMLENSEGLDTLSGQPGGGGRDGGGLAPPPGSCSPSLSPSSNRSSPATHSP

[3] = target: B1; assay: as above
GAL4 reporter = assay: GAL4 DBD-TIF2 fusion CAT reporter transactivation assay; type: cell-based; details: Cos-1 and/or HeLa cells
Experimental: (a) HeLa cells were cotransfected with 1 μg (17m)5-βG-CAT and 10 μg GAL(1-147) or 1,3 and 10 μg GAL(1-147)-TIF2.1, respectively.
(c) Analysis of the transcriptional activity of GAL-TIF2 fusion proteins. Cos-1 and HeLa cells were transfected with 3 lag of plasmids expressing different regions of TIF2 fised to the DNA-binding domain of the yeast transcription factor GALA together with 1 μg of the (7m)5-G-CAT reporterplasmid. CAT assays were performed as described (Bocquel, M. T. et al., Nucl Acids Res. 17:2581-2595 (1989)). Quantitative data on CAT reporter expression were obtained either by phosphoimager analysis (BAS2000, Fuji) of ^14C-labeled CAT reaction products separated by thin-layer chromatography, or using the CAT ELISA Kit (Boehringer Mannheim). In all cases, CAT activities were normalized to the β-galactosidase concentrations resulting from cotransfection of 1 μg of pCMVPGal (gift from T. Lerouge) as internal control. Fold inductions above the GAL4 DBD value are indicated. The mean and standard deviation of at least three experiments are shown. A representative Western blot, illustrating the expression levels of the GAL4-TIF2 fusion proteins, expressed from 10 μg of the corresponding expression vectors, is shown on the left.
(b) Transcriptional activation of TIF2 AF-1 mutants. Cos-1 and HeLa cells were cotransfected with 3 μg of plasmids expressing different mutants of the TIF2 AF-1 fused to the DNA-binding domain of the yeast transcription factor GAL4 together with 1 μg of the (17m)5-G-CAT reporter plasmid. Fold inductions above the activation seen with the GAL4 DBD alone are indicated. The values represent the mean of at least three experiments.
(a) Transcriptional activation by TIF2.13 and TIF2.13 mutants. Cos-1 and HeLa cells were cotransfected with 3 μg of plasmids expressing the TIF2.13 region and the indicated TIF2.13 mutants fused to the DNA-binding domain of the yeast transcription factor GALA together with 1 μg of the (17m)5-G-CAT reporter plasmid. Fold inductions above the GAL4 DBD 1-fold value are indicated. The mean and standard deviation obtained from at least four experiments are shown. The expression levels of the GAL4-TIF2.13 fusion proteins were confirmed by western blotting (data not shown).
Transient transfections of HeLa and Cos-1 cells were performed as described (Gronemeyer et al., (1987); Bocquel, M. T. et al., Nucl. Acids Res. 17:2581-2595 (1989)).

ER, RARα and RXRα LBDs = assay: GST pull-down of TIF2 polypeptides with NR LBDs; type: binding; details: in vitro, with or without 10^−6 M ligand
Experimental: (b) Mapping of the nuclear receptor-interacting domain of TIF2.
(c-d) Interaction of TIF2 NID mutants with NRs in vitro. […] For quantification of point mutant interactions, see below.
(e-f) Effect of TIF2 NID point mutations on stimulation of NR AF-2 activity. Cos-1 cells were cotransfected with 1 μg of the (17m)5-TATA-CAT reporter, 0.2 μg of GAL-hERα(EF) or GAL-mRXRα(DE), and 2.5 μg of the TIF2.1 wildtype or mutated fragments, as indicated. […] Each bar represents the mean value obtained from at least three (interaction) or at least four (transactivation) experiments, respectively; standard deviations are indicated. Note that the absolute values for TIF2.1 wildtype activity varied by ±16% when cotransfected with GAL-hERα(EF) and by ±34% when cotransfected with GAL-mRXRα(DE). In the in-vitro-interaction assays, the affinity of the TIF2.1 wildtype standard varied by less than ±25%. Expression levels of TIF2 mutants in the cells were verified by Western blot (not shown) with mouse monoclonal antibody 3Ti3F1, which is directed against an epitope outside the mutated area.
To further delineate the TIF2 NR interaction domain (NID), we studied the interaction between a series of TIF2 deletion mutants and the ER or RARα LBDs, using GST-fusion protein-based in vitro assays. In both cases, an NWD was mapped to the central region of TIF2 (amino acids 624-869 in mutant TIF2.5; see FIGS. 7a and b). No additional NWD could be identified in the N- or C-termini of TIF2 (FIGS. 7a and b; mutants TIF2.0, TIF2.2 and TIF2.7). Note that, in contrast, SRC-1, a paralogue of TIF2, apparently harbours two distinct non-contiguous NIDs located in the central and C-terminal regions (Onate, S. A. et al., Science 270:1354-1357 (1995), Yao, T. P. et al., Proc. Natl. Acad. Sci. USA 93:10626-10631 (1996); Zhu, Y. et al., Gene Epression 6:185-195 (1996)).

B1
binding result [1]: binds

B2: TIF2.1 m12 (LL→AA in NR box motifs I and II) (other)
chain: ERADGQSRLHDSKGQTKLLQAATTKSDQMEPSPLASSLSDTNKDSTGSLPGSGSTHGTSLKEKHKILHRAAQDSSSPVDLAKLTAEATGKDLSQESSSTAPGSEVTIKQEPVSPKKKENALLRYLLDKDDTKDIGLPEITPKLERLDSKTDPASNTKLIAMKTEKEEMSFEPGDQPGSELDNLEEILDDLQNSQLPQLFPDTRPGAPAGSVDKQAIINDLMQLTAENSPVTPVGAQKTALRISQSTFNNPRPGQLGRLLPNQNLPLDITLQSPTGAGPFPPIRNSSPYSVIPQPGMMGNQGMIGNQGNLGNSSTGMIGNSASRPTMPSGEWAPQSSAVRVTCAATTSAMNRPVQGGMIRNPAASIPMRPSSQPGQRQTLQSQVMNIGPSELEMNMGGPQYSQQQAPPNQTAPWPESILPIDQASFASQNRQPFGSSPDDLLCPHPAAESPSDEGALLDQLYLALRNFDGLEEIDRALGIPELVSQSQAVDPEQFSSQDSNIMLEQKAPVFPQQYASQAQMAQGSYSPMQDPNFHTMGQRPSYATLRMQPRPGLRPTGLVQNQPNQLRLQLQHRLQAQQNRQPLMNQISNVSNVNLTLRPGVPTQAPINAQMLAQRQREILNQHLRQRQMHQQQQVQQRTLMMRGQGLNMTPSMVAPSGMPATMS
notes: also called single intact NR box III
times less efficient in NR interaction than the wild-type TIF2 [2]: 20 times less efficient than wild type
times less efficient in NR interaction than the wild-type TIF2 [3]: 20 times less efficient than wild type

B3: TIF2.15: TIF2.13 with removal of 26 C-terminal amino acid residues (protein, UniProt Q15596 1011-1096, looked up, fragment)
chain: PSELEMNMGGPQYSQQQAPPNQTAPWPESILPIDQASFASQNRQPFGSSPDDLLCPHPAAESPSDEGALLDQLYLALRNFDGLEEI
transcriptional activation of GAL4 reporter by GAL4 DBD fusion (GAL4 reporter): reduced transcriptional activity only weakly

B4: TIF2.34: TIF2.5 C-terminally truncated to Pro775 (protein)
chain: MKLLSSIEQACDICRLKKLKCSKEKPKCAKCLKNNWECRYSPKTKRSPLTRAHLTEVESRLERLEQLFLLIFPREDLDMILKMDSLQDIKALLTGLFVQDNVNKDAVTDRLASVETDMPLTLRQHRISATSSSEESSNKGQRQLTVSERADGQSRLHDSKGQTKLLQLLTTKSDQMEPSPLASSLSDTNKDSTGSLPGSGSTHGTSLKEKHKILHRLLQDSSSPVDLAKLTAEATGKDLSQESSSTAPGSEVTIKQEPVSPKKKENALLRYLLDKDDTKDIGLPEITPKLERLDSKTDP
binding to NRs (ER, RARα LBDs) (ER, RARα and RXRα LBDs): interacted with ER and RARα LBDs in a ligand-dependent manner

B5: TIF2.18: TIF2.13 with removal of 20 N-terminal amino acid residues (protein, UniProt Q15596 1031-1122, looked up, fragment)
chain: NQTAPWPESILPIDQASFASQNRQPFGSSPDDLLCPHPAAESPSDEGALLDQLYLALRNFDGLEEIDRALGIPELVSQSQAVDPEQFSSQDS
transcriptional activation of GAL4 reporter by GAL4 DBD fusion (GAL4 reporter): reduced transcriptional activity only weakly
